Experimental data reported in US6462173B1, “Inhibitors of phosphoserine and phosphothreonine-proline-specific isomerases” (Max-Planck-Gesellschaft zur Forderung der, priority 1997, dated 2002).

What was measured:
[1] = molecular target: T1, Pin1 (Homo sapiens, UniProt Q13526); assay: Pin1 precipitation from interphase and mitotic HeLa extracts probed with antibodies to known mitotic phosphoproteins; assay type: binding
T1 construct: fusion protein containing full length Pin1 was bacterially expressed, purified; made in house
Experimental: (§1) To detect Pin1-binding proteins, either HeLa cells were lysed in or Xenopus extracts were diluted in a buffer (buffer A) containing 50 mM Tris-HCl, pH 8.0, 200 mM NaCl, 100 mM NaF, 1 mM sodium orthovanadate, 10% glycerol, 1% Triton X100, 10 μg/ml aprotinin, 50 μg/ml phenylmethylsulfonyl fluoride and 1 mM DTT. The lysates were preclarified with boiled S. aureus bacteria (CalBiochem) and then incubated with 10 μl of agarose beads containing various GST-Pin1 proteins or control GST for 2 h at 4° C. The precipitated proteins were washed 5 times in the same buffer and subjected to immunoblotting analysis. Immunoprecipitation and immunoblotting analysis using MPM-2 antibody (Davis et al. 1983), which was kindly provided by J. Kuang, Pin1 antibodies (Lu et al., 1996, kindly provided by M. White or newly generated), anti-phospho.Tyr antibody (UBI), anti-Cdc25C (Ogg, et al., 1994) (from H. Piwnica-Worms and Santa Cruz Biotechnology), anti-Cdc27, anti-Plk1 (Zymed), anti-Cdc2 (Solomon, M. J., M. Glotzer, T. H. Lee, M. Philippe and M. W. Kirschner. Cell 63:1013-1024 (1991), anti-human Myt1, anti-human cyclin B1 and anti-Xenopus cyclin B were performed, as described previously in Lu and Hunter, 1995; Lu et al., 1996).
Several known mitotic regulators such as cyclin B, Cdc25, Myt1, Plk1 and Cdc27 are phosphorylated at mitosis. To identify at least a few of the many Pin1 binding proteins, Pin1-binding proteins were precipitated from HeLa cells, or Xenopus extracts and probed with antibodies specific for known mitotic phosphoproteins. As shown previously, levels of Plk1 and cyclin B1 increased at mitosis, whereas similar amounts of Cdc25C were present in interphase and mitotic HeLa cells. […] Similarly, only the mitotic, but not the interphase form of Xenopus Cdc27 was precipitated by Pin1.

[2] = molecular target: T1, Pin1; assay: Confirmation of interaction between Pin1 and predicted Pin1 substrates; conditions: Pin1 binding confirmed in vitro (SC35 inferred from colocalization)
Experimental: On the basis of amino acid preferences deduced in the 6 positions surrounding the pS-P motif for optimal Pin1 binding, a weighted screening of the SWISS-PROT sequence database. Protein sequence database screening was performed with the program INDOVINATOR, using an entropy-based weighing technique to score for relative information content at each amino acid position flanking the pS/pT-P motif with the quantitative peptide library results, which are shown qualitatively in Table 3. […] Many of these proteins are involved in regulation of the cell cycle, cytoskeletal/spindle structure, DNA replication, transcription or RNA processing (Table 4).
Several of these predicted proteins, such as Rab4, Cdc25 and NIMA, undergo mitosis-specific phosphorylation (R. Heald and F. McKeon, Cell 61:579 (1990); E. Bailly, et al., Nature 350:715 (1991); A. Blangy, et al., Cell 83:1159 (1995): J. Kuang, et al., Mol. Biol. Cell 5:135 (1994); X. S. Ye, et al., EMBO J. 14:986 (1995)). Cdc25 and NIMA also binds to Pin1 in a phosphorylation-dependent manner, as described herein. Other proteins identified in this search, however, had not been previously suspected of interacting with Pin1; therefore, a few were further investigated as example cases. […] Thus, Pin1 binds a wide functional range of mitotic phosphoproteins.

[3] = molecular target: T1, Pin1; assay: Precipitation with GST-Pin1 beads of synthesized phosphoproteins incubated with interphase and mitotic Xenopus extracts; assay type: binding; parameters: key: +: a week but above background interaction; ++: readily detectable interaction; +++: strong interaction; conditions: for Interaction with Pin1, Mitotic: mitotic Xenopus extracts
Experimental: The binding between Pin1 and all selected mitotic phosphoproteins was assayed by incubating synthesized proteins with interphase and mitotic Xenopus extracts, followed by precipitation with GST-Pin1beads. The Pin1 interactions with those proteins indicated with * were also confirmed by GST-Pin1 pull-down assay from endogenous interphase and mitotic HeLa cell extracts. +, a week but above background interaction; ++, readily detectable interaction; +++, strong interaction.
The mitotic phosphoproteins were translated in vitro using the TNT coupled transcription/translation kit (Promega) in a total volume of 10 μl in the presence of 8 μCi [^35S]methionine (1000 Ci/mmol) for 2 h at 30° C. They were then incubated in xenopus interphase and mitotic extracts as described (Stukenberg et al., 1997). These incubated clones were precipitated by Pin1 beads as described below. The Xenopus Mos and Weel clones were a kind gift of M. Murakami, G, F. Woude and J. Cooper; the Xenopus Cdc25 clone was a generous gift of W. Dunphy, T3 and T3S2 Cdc25 mutants were kindly provided by J. Maller (Izumi and Maller, 1993).
as §1
To gain a sense of the generality of the interaction between Pin1 and mitotic phosphoproteins and to confirm the Pin1 interaction with target proteins is indeed mediated by phosphorylation, the ability of Pin1 to bind other known mitotic phosphoproteins and a set of mitotic phosphoproteins identified by a systematic phosphoprotein screen (Stukenberg et al., Curr Biol 7:338-348 (1997). Proteins synthesized in vitro were phosphorylated in a cell cycle specific manner by incubating them in either Xenopus interphace or mitotic extracts. These labeled protein were subsequently incubated with GST-Pin1 beads that were extensively washed and the bound proteins analyzed by SDS-PAGE. To validate this method, Cdc25 was first tested. Again, the mitotically phosphorylated form of in vitro translated Cdc25 could be precipitated by GST-Pin1 beads. However, Cdc25 was not recognized by Pin1 if it was incubated in interphase extracts. […] Out of the 13 mitotic phosphoproteins examined, Pin1 bound 10 in a mitosis and phosphorylation-dependent manner (summarized in Table 1), including Weel, MP75 and MP110, MP75 and MP110 are Xenopus proteins related to microtubule-associated protein E-MAP-115 and the fission yeast G2 transcription factor Cdc5, respectively.

T1 sequence (Q13526 whole entry, the tested form may be a part): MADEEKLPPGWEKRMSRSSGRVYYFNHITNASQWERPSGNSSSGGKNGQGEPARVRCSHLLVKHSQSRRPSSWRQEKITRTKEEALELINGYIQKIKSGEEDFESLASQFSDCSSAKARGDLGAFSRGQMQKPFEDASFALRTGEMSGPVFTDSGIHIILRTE

| Molecule | Binding Confirmed [2] | Interaction with Pin1, Mitotic [3] | also measured |
| --- | --- | --- | --- |
| PTP-1B: protein hyperphosphorylated during mitosis |  |  | precipitation by Pin1 [1]: not precipitated by Pin1 in either interphase or mitotic extracts |
| Cdc25: mitotic phosphoprotein, phosphatase; Xenopus Cdc25 clone translated in vitro (protein) STELFSSTREEGSSGSGPSFRSNQRKMLNLLLERDTSFTVCPDVPRTPVGKFLGDSANLSILSGGTPKRCLDLSNLSSGEITATQLTTSADLDETGHLDSSGLQEVHLAGMNHDQHLMKCSPAQLLCSTPNGLDRGHRKRDAMCSSSANKENDNGNLVDSEMKYLGSPITTVPKLDKNPNLGEDQAEEISDELMEFSLKDQEAKVSRSGLYRSPSMPENLNRPRLKQVEKFKDNTIPDKVKKKYFSGQGKLRKGLCLKKTVSLCDITITQMLEEDSNQGHLIGDFSKVCALPTVSGKHQDLKYVNPETVAALLSGKFQGLIEKFYVIDCRYPYEYLGGHIQGALNLYSQEELFNFFLKKPIVPLDTQKRIIIVFHCEFSSERGPRMCRCLREEDRSLNQYPALYYPELYILKGGYRDFFPEYMELCEPQSYCPMHHQDHKTELLRCRSQSKVQEGERQLREQIALLVKDMSP |  | +++ |  |
| Mos: mitotic phosphoprotein, Xenopus Mos clone (protein) MPSPIPVERFLPRDLSPSIDLRPCSSPLELSHRKLPGGLPACSGRPRLLPPRLAWCSIDWEQVLLLEPLGSGGFGSVYRATYRGETVALKKVKRSTKNSLASRQSFWAELNAARLRHPHVVRVVAASASCPGDPGCPGTIIMEYTGTGTLHQRIYGRSPPLGAEICMRYARHVADGLRFLHRDGVVHLDLKPANVLLAPGDLCKIGDFGCSQRLREGDEAAGGEPCCTQLRHVGGTYTHRAPELLKGEPVTAKADIYSFAITLWQMVSRELPYTGDRQCVLYAVVAYDLRPEMGPLFSHTEEGRAARTIVQSCWAARPQERPNAEQLLERLEQECAMCTGGPPSCSPESNAPPPLGTGL |  | ++ | Interaction with Pin1, Interphase ([3]; interphase Xenopus extracts): + |
| E-MAP-115: cytoskeletal/spindle protein, predicted Pin1 substrate (protein, UniProt Q14244 2-749, looked up) Ensconsin: AELGAGGDGHRGGDGAVRSETAPDSYKVQDKKNASSRPASAISGQNNNHSGNKPDPPPVLRVDDRQRLARERREEREKQLAAREIVWLEREERARQHYEKHLEERKKRLEEQRQKEERRRAAVEEKRRQRLEEDKERHEAVVRRTMERSQKPKQKHNRWSWGGSLHGSPSIHSADPDRRSVSTMNLSKYVDPVISKRLSSSSATLLNSPDRARRLQLSPWESSVVNRLLTPTHSFLARSKSTAALSGEAASCSPIIMPYKAAHSRNSMDRPKLFVTPPEGSSRRRIIHGTASYKKERERENVLFLTSGTRRAVSPSNPKARQPARSRLWLPSKSLPHLPGTPRPTSSLPPGSVKAAPAQVRPPSPGNIRPVKREVKVEPEKKDPEKEPQKVANEPSLKGRAPLVKVEEATVEERTPAEPEVGPAAPAMAPAPASAPAPASAPAPAPVPTPAMVSAPSSTVNASASVKTSAGTTDPEEATRLLAEKRRLAREQREKEERERREQEELERQKREELAQRVAEERTTRREEESRRLEAEQAREKEEQLQRQAEERALREREEAERAQRQKEEEARVREEAERVRQEREKHFQREEQERLERKKRLEEIMKRTRRTEATDKKTSDQRNGDIAKGALTGGTEVSALPCTTNAPGNGKPVGSPHVVTSHQSKVTVESTPDLEKQPNENGVSVQNENFEEIINLPIGSKPSRLDVTNSESPEIPLNPILAFDDEGTLGPLPQVDGVQTQQTAEVI | Yes |  |  |
| NIMA: mitotic phosphoprotein, kinase (protein) MAIALAEADKYEVLEKIGCGSFGIIRKVKRKSDGFILCRKEINYIKMSTKEREQLTAEFNILSSLRHPNIVAYYHREHLKASQDLYLYMEYCGGGDLSMVIKNLKRTNKYAEEDFVWRILSQLVTALYRCHYGTDPAEVGSNLLGPAPKPSGLKGKQAQMTILHRDLKPENIFLGSDNTVKLGDFGLSKLMHSHDFASTYVGTPFYMSPEICAAEKYTLRSDIWAVGCIMYELCQREPPFNARTHIQLVQKIREGKFAPLPDFYSSELKNVIASCLRVNPDHRPDTATLINTPVIRLMRREVELNNLSRAARKREEATMQKAKDVEQAFAKLEKEKQQIRSELENSIRREWEVKARLEIDRQVQNELDKLRKRFECEVQDRVAQEVEKQRRNANYREDASLRSSGHSSQMSSSNSEDSDFPSSTDISQLSLESPTNKAAKLPKKESRTPFTRSKTVVDSPMDIQMAEPSPISIASLSLSPRRTSATYSGKNIFAEGERKRPKFEPTLAYSDDEDDTPELPSPTRPKVKPDPFKAPSRPLLRQNTTALMQKLSTQPPIFPANPSRLPQMSAPDVRESKSRSPHRRLSKIPSSANLAADAGSPTRKNGVKSSPSKMNGGDEMFKAVMQRNMGGRTLVELAQARAGGRPIDEVKRCASDSRSGCSVPMKSADRDPPAVWDPERDEMPSPFLARGRKVIRNLR | Yes | +++ |  |

More lines, main results first:

| Binding Confirmed [2] | Interaction with Pin1, Mitotic [3] | Molecule | also measured |
| --- | --- | --- | --- |
| Yes |  | Splicing factor SC35: nuclear/splicing protein, predicted Pin1 substrate (protein, UniProt Q01130 2-221, looked up) Serine/arginine-rich splicing …: SYGRPPPDVEGMTSLKVDNLTYRTSPDTLRRVFEKYGRVGDVYIPRDRYTKESRGFAFVRFHDKRDAEDAMDAMDGAVLDGRELRVQMARYGRPPDSHHSRRGPPPRRYGGGGYGRRSRSPRRRRRSRSRSRSRSRSRSRSRYSRSKSRSRTRSRSRSTSKSRSARRSKSKSSSVSRSRSRSRSRSRSRSPPPVSKRESKSRSRSKSPPKSPEEEGAVSS |  |
|  | +++ | Plx1: mitotic phosphoprotein (protein) MAQVAGKKLTVAPEAAKPPGIPGSSSAVKEIPEILVDPRTRRRYLRGRFLGKGGFAKCYEITDLESREVFAGKIVPKTMLLKPHQKDKMTMEIAIQRSLDHRHVVGFHGFFEDNDFVYVVLELCRRRSLLELHKRRKAVTEPEARYYLKQTISGCQYLHSNRVIHRDLKLGNLFLNDEMEVKIGDFGLATKVEYDGERKKTLCGTPNYIAPEVLGKKGHSFEVDIWSIGCIMYTLLVGKPPFETSCLKETYMRIKKNEYSIPKHINPVAAALIQKMLRSDPTSRPTIDDLLNDEFFTSGYIPSRLPTTCLTVPPRFSIAPSTIDQSLRKPLTAINKGQDSPLVEKQVAPAKEEEMQQPEFTEPADCYLSEMLQQLTCLNAVKPSERALIRQEEAEDPASIPIFWISKWVDYSDKYGLGYQLCDNSVGVLFNDSTRLIMYNDGDSLQYIERNNTESYLNVRSYPTTLTKKITLLKYFRNYMSEHLLKAGANTTPREGDELARLPFLRTWFRTRSAIILHLSNGTVQINFFQDHTKIILCPLMAAVSYIDEKREFRTYKLSLIQEFGCCKELASRLRYARTMVEKLQSSKSAVAHVKASA |  |
